# Test results from the RNAGym collection of RNA variant scans (doi:10.1093/molbev/msab373).
# B1: Azoarcus group I ribozyme (parent)
# chain: GUGCCUUGCGCCGGGAAACCACGCAAGGGAUGGUGUCAAAUUCGGCGAAACCUAAGCGCCCGCCCGGGCGUAUGGCAACGCCGAGCCAAGCUUCGGCGCCUGCGCCGAUGAAGGUGUAGAGACUAGACGGCACCCACCUAAGGCAAACGCUAUGGUGAAGGCAUAGUCCAGGGAGUGGCGAAAGUCACACAAACCGG
# Variants of: B1
# Assay: reverse-splicing fitness (ratio to wild type); higher = more active; in vitro selection; Mg2+ level not given
# In short: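 An in vitro group I ribozyme library with randomized positions was T7-transcribed and gel-purified. In triplicate, 10 pmol RNA in EPPS pH 7.5 was reacted with 50 pmoles of a 30-nt RNA substrate for 1 h at 37 °C across several added MgCl2 levels (1–48 mM), then stopped with EDTA. Products were reverse transcribed from a substrate-complementary primer, PCR-amplified and sequenced (HiSeq 4000). Fitness is a variant's read proportion after selection over that before, normalised to wild type.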
row,Variant,reverse-splicing fitness
1,GUGCCUUGCGCCGGGAAACCACGCAAGGGAUGGUGUCAAAUUCGGCGAAACCUAAGCGCCCGCCCGGGCGUAUGGCAACGCUGAGCCAAGCUUCGGCGCCUGCGCCGAUGUAGGUGUAGAGACUAGACGGCACCCACCUAAGGCGAACGGUAUGGUGAAGGCAUAGUCUAGGGAGAGGCGAAAGUCACACAAACCGG [C82U A111U A145G C150G C169U U176A],0.0114
2,GUGCCUUGCGCCGGGAAACCACGCAAGGGAUGGUGUCAAAUUCGGCGAAACCUAAGCGCCCGCCCGGGCGUAUGGCAACGCUGAGCCAAGCUUCGGCGCCUGCGCCGAUGUAGGUGUAGAGACUAGACGGCACCCACCUAAGGCGAACGGUAUGGUGAAGGCAUAGUCUAGGGAGUGGCGAAAGUCACACAAACCGG [C82U A111U A145G C150G C169U],0.00863
3,GUGCCUUGCGCCGGGAAACCACGCAAGGGAUGGUGUCAAAUUCGGCGAAACCUAAGCGCCCGCCCGGGCGUAUGGCAACGCUGAGCCAAGCUUCGGCGCCUGCGCCGAUGUAGGUGUAGAGACUAGACGGCACCCACCUAAGGCGAACGGUAUGGUGAAGGCAUAGUCGAGGGAGUGGCGAAAGUCACACAAACCGG [C82U A111U A145G C150G C169G],0.00754
4,GUGCCUUGCGCCGGGAAACCACGCAAGGGAUGGUGUCAAAUUCGGCGAAACCUAAGCGCCCGCCCGGGCGUAUGGCAACGCUGAGCCAAGCUUCGGCGCCUGCGCCGAUGUAGGUGUAGAGACUAGACGGCACCCACCUAAGGCGAACGGUAUGGUGAAGGCAUAGUCAAGGGAGUGGCGAAAGUCACACAAACCGG [C82U A111U A145G C150G C169A],0.00815
5,GUGCCUUGCGCCGGGAAACCACGCAAGGGAUGGUGUCAAAUUCGGCGAAACCUAAGCGCCCGCCCGGGCGUAUGGCAACGCUGAGCCAAGCUUCGGCGCCUGCGCCGAUGUAGGUGUAGAGACUAGACGGCACCCACCUAAGGCGAACGUUAUGGUGAAGGCAUAGUCGAGGGAGGGGCGAAAGUCACACAAACCGG [C82U A111U A145G C150U C169G U176G],0.00598
6,GUGCCUUGCGCCGGGAAACCACGCAAGGGAUGGUGUCAAAUUCGGCGAAACCUAAGCGCCCGCCCGGGCGUAUGGCAACGCUGAGCCAAGCUUCGGCGCCUGCGCCGAUGUAGGUGUAGAGACUAGACGGCACCCACCUAAGGCGAACGUUAUGGUGAAGGCAUAGUCGAGGGAGCGGCGAAAGUCACACAAACCGG [C82U A111U A145G C150U C169G U176C],0.0174
7,GUGCCUUGCGCCGGGAAACCACGCAAGGGAUGGUGUCAAAUUCGGCGAAACCUAAGCGCCCGCCCGGGCGUAUGGCAACGCUGAGCCAAGCUUCGGCGCCUGCGCCGAUGUAGGUGUAGAGACUAGACGGCACCCACCUAAGGCGAACGUUAUGGUGAAGGCAUAGUCGAGGGAGAGGCGAAAGUCACACAAACCGG [C82U A111U A145G C150U C169G U176A],0.0133
8,GUGCCUUGCGCCGGGAAACCACGCAAGGGAUGGUGUCAAAUUCGGCGAAACCUAAGCGCCCGCCCGGGCGUAUGGCAACGCUGAGCCAAGCUUCGGCGCCUGCGCCGAUGUAGGUGUAGAGACUAGACGGCACCCACCUAAGGCGAACGGUAUGGUGAAGGCAUAGUCCAGGGAGGGGCGAAAGUCACACAAACCGG [C82U A111U A145G C150G U176G],0.00676
9,GUGCCUUGCGCCGGGAAACCACGCAAGGGAUGGUGUCAAAUUCGGCGAAACCUAAGCGCCCGCCCGGGCGUAUGGCAACGCUGAGCCAAGCUUCGGCGCCUGCGCCGAUGUAGGUGUAGAGACUAGACGGCACCCACCUAAGGCGAACGGUAUGGUGAAGGCAUAGUCCAGGGAGCGGCGAAAGUCACACAAACCGG [C82U A111U A145G C150G U176C],0.0196
10,GUGCCUUGCGCCGGGAAACCACGCAAGGGAUGGUGUCAAAUUCGGCGAAACCUAAGCGCCCGCCCGGGCGUAUGGCAACGCUGAGCCAAGCUUCGGCGCCUGCGCCGAUGUAGGUGUAGAGACUAGACGGCACCCACCUAAGGCGAACGGUAUGGUGAAGGCAUAGUCCAGGGAGAGGCGAAAGUCACACAAACCGG [C82U A111U A145G C150G U176A],0.0103
11,GUGCCUUGCGCCGGGAAACCACGCAAGGGAUGGUGUCAAAUUCGGCGAAACCUAAGCGCCCGCCCGGGCGUAUGGCAACGCUGAGCCAAGCUUCGGCGCCUGCGCCGAUGUAGGUGUAGAGACUAGACGGCACCCACCUAAGGCGAACGGUAUGGUGAAGGCAUAGUCGAGGGAGGGGCGAAAGUCACACAAACCGG [C82U A111U A145G C150G C169G U176G],0.00579
12,GUGCCUUGCGCCGGGAAACCACGCAAGGGAUGGUGUCAAAUUCGGCGAAACCUAAGCGCCCGCCCGGGCGUAUGGCAACGCUGAGCCAAGCUUCGGCGCCUGCGCCGAUGUAGGUGUAGAGACUAGACGGCACCCACCUAAGGCGAACGGUAUGGUGAAGGCAUAGUCGAGGGAGCGGCGAAAGUCACACAAACCGG [C82U A111U A145G C150G C169G U176C],0.0116
13,GUGCCUUGCGCCGGGAAACCACGCAAGGGAUGGUGUCAAAUUCGGCGAAACCUAAGCGCCCGCCCGGGCGUAUGGCAACGCUGAGCCAAGCUUCGGCGCCUGCGCCGAUGUAGGUGUAGAGACUAGACGGCACCCACCUAAGGCGAACGGUAUGGUGAAGGCAUAGUCGAGGGAGAGGCGAAAGUCACACAAACCGG [C82U A111U A145G C150G C169G U176A],0.00984
14,GUGCCUUGCGCCGGGAAACCACGCAAGGGAUGGUGUCAAAUUCGGCGAAACCUAAGCGCCCGCCCGGGCGUAUGGCAACGCUGAGCCAAGCUUCGGCGCCUGCGCCGAUGUAGGUGUAGAGACUAGACGGCACCCACCUAAGGCGAACGGUAUGGUGAAGGCAUAGUCCAGGGAGUGGCGAAAGUCACACAAACCGG [C82U A111U A145G C150G],0.0326
15,GUGCCUUGCGCCGGGAAACCACGCAAGGGAUGGUGUCAAAUUCGGCGAAACCUAAGCGCCCGCCCGGGCGUAUGGCAACGCUGAGCCAAGCUUCGGCGCCUGCGCCGAUGUAGGUGUAGAGACUAGACGGCACCCACCUAAGGCGAACGUUAUGGUGAAGGCAUAGUCCAGGGAGUGGCGAAAGUCACACAAACCGG [C82U A111U A145G C150U],0.235
